Source: the PETadex activity labels (doi:10.1016/j.bbalip.2005.11.003)

What was measured:
Details in all cases: pH 7; 25 °C
[1] = substrate: p-NP-C4
[2] = substrate: triacetin
[3] = substrate: tributyrin
[4] = substrate: tripropionin
[5] = substrate: vinyl acetate
[6] = substrate: vinyl butyrate
[7] = substrate: vinyl propionate
[8] = substrate: vinyl laurate

Protein | Km [1] [µM] | kcat [1] [s⁻¹] | Km [2] [µM] | kcat [2] [s⁻¹] | kcat/Km [2] [M⁻¹ s⁻¹] | Km [3] [µM] | kcat [3] [s⁻¹] | kcat/Km [3] [M⁻¹ s⁻¹] | Km [4] [µM] | kcat [4] [s⁻¹] | kcat/Km [4] [M⁻¹ s⁻¹] | Km [5] [µM] | kcat [5] [s⁻¹] | kcat/Km [5] [M⁻¹ s⁻¹] | Km [6] [µM] | kcat [6] [s⁻¹] | kcat/Km [6] [M⁻¹ s⁻¹] | Km [7] [µM] | kcat [7] [s⁻¹] | kcat/Km [7] [M⁻¹ s⁻¹] | also measured
unnamed (protein) MWLLPLVLTSLASSATWAGQPASPPVVDTAQGRVLGKYVSLEGLAQPVAVFLGVPFAKPPLGSLRFAPPQPAEPWSFVKNTTSYPPMCCQDPVVEQMTSDLFTNGKERLTLEFSEDCLYLNIYTPADLTKRGRLPVMVWIHGGGLVLGGAPMYDGVVLAAHENVVVVAIQYRLGIWGFFSTGDEHSRGNWGHLDQVAALHWVQENIANFGGDPGSVTIFGESAGGESVSVLVLSPLAKNLFHRAISESGVALTVALVRKDMKAAAKQIAVLAGCKTTTSAVFVHCLRQKSEDELLDLTLKMKFLTLDFHGDQRESHPFLPTVVDGVLLPKMPEEILAEKDFNTVPYIVGINKQEFGWLLPTMMGFPLSEGKLDQKTATSLLWKSYPIANIPEELTPVATDKYLGGTDDPVKKKDLFLDLMGDVVFGVPSVTVARQHRDAGAPTYMYEFQYRPSFSSDKKPKTVIGDHGDEIFSVFGFPLLKGDAPEEEVSLSKTVMKFWANFARSGNPNGEGLPHWPMYDQEEGYLQIGVNTQAAKRLKGEEVAFWNDLLSKEAAKKPPKIKHAEL | 80 | 18 | 3000 | 60 | 20000 | 50 | 70 | 1.4e+06 | 300 | 50 | 167000 | 4000 | 315 | 78800 | 2000 | 460 | 230000 | 5000 | 295 | 59000 | kcat/Km [1]: 225000 M⁻¹ s⁻¹
unnamed (protein) MLDMPIDPVYYQLAEYFDSLPKFDQFSSAREYREAINRIYEERNRQLSQHERVERVEDRTIKGRNGDIRVRVYQQKPDSPVLVYYHGGGFVICSIESHDALCRRIARLSNSTVVSVDYRLAPEHKFPAAVYDCYDATKWVAENAEELRIDPSKIFVGGDSAGGNLAAAVSIMARDSGEDFIKHQILIYPVVNFVAPTPSLLEFGEGLWILDQKIMSWFSEQYFSREEDKFNPLASVIFADLENLPPALIITAEYDPLRDEGEVFGQMLRRAGVEASIVRYRGVLHGFINYYPVLKAARDAINQIAALLVFD | 40 | 140 | 10000 | 40 | 4000 | 50 | 95 | 1.9e+06 | 300 | 110 | 367000 | 4000 | 50 | 12500 | 2500 | 210 | 84000 | 7000 | 200 | 28600 | kcat/Km [1]: 3.5e+06 M⁻¹ s⁻¹
unnamed (protein) MLPLWTLSLLLGAVAGKEVCYERLGCFSDDSPWSGITERPLHILPWSPKDVNTRFLLYTNENPNNFQEVAADSSSISGSNFKTNRKTRFIIHGFIDKGEENWLANVCKNLFKVESVNCICVDWKGGSRTGYTQASQNIRIVGAEVAYFVEFLQSAFGYSPSNVHVIGHSLGAHAAGEAGRRTNGTIGRITGLDPAEPCFQGTPELVRLDPSDAKFVDVIHTDGAPIVPNLGFGMSQVVGHLDFFPNGGVEMPGCKKNILSQIVDIDGIWEGTRDFAACNHLRSYKYYTDSIVNPDGFAGFPCASYNVFTANKCFPCPSGGCPQMGHYADRYPGKTNDVGQKFYLDTGDASNFARWRYKVSVTLSGKKVTGHILVSLFGNKGNSKQYEIFKGTLKPDSTHSNEFDSDVDVGDLQMVKFIWYNNVINPTLPRVGASKIIVETNVGKQFNFCSPETVREEVLLTLTPC |  |  | 190000 | 8 | 42.1 | 400 | 7890 | 1.97e+07 | 8000 | 3320 | 415000 | 315000 | 170 | 540 | 25000 | 625 | 25000 | 75000 | 800 | 10700 | Km [8]: 4000 µM; kcat [8]: 375 s⁻¹; kcat/Km [8]: 93800 M⁻¹ s⁻¹
unnamed (protein) MLHLVCLALLCHVARGLPTQASHNAQPVINLGYARYQGVRLEAGVDEFLGMRYASPPIGDLRFRAPQDPPANQTLQSATEYGPICIGLDEEESPGDISEDCLFINVFKPSTATSQSKLPVWLFIQGGGYAENSNANYNGTQVIQASDDVIVFVTFNYRVGALGFLASEKVRQNGDLNAGLLDQRKALRWVKQYIEQFGGDPDHIVIHGVSAGAGSVAYHLSAYGGKDEGLFIGAIVESSFWPTQRTVSEMEFQFERFVNDTGCSSARDSLECLREQDIATIQKGNTGSPFPGGSSSPLPDWYFLPVTDGSLVPDELYNAFDAGNFIKVPVLVGDDTDEGSNFAYNASSSADVSRFFKNNYPNLTSQQLNEINQVYPRGKLLPRHAAYFGASSAAYGDATFTCPGNHVASSAARYLPNSVWNYRVNIIDESNIAGGIGVPHTFELPAIFGAGSTGTLSSDSSYLTYNAAIIPVTMHYFISFVQTLNPNTYRYATAPEWNTWGNGQRLRLQTNDTAMEAVPESSLQDCAFWKSLTVPMEV |  |  | 15000 | 265 | 17700 |  |  |  | 350 | 60 | 171000 | 3000 | 400 | 133000 | 2000 | 25 | 12500 | 3000 | 160 | 53300 | 
